Measured values taken from publication PMC4655364, “HdeB chaperone activity is coupled to its intrinsic dynamic properties” (Scientific Reports, 2015).

Target: the molecule itself
Experiment: NMR backbone 15N relaxation (R2/R1, model-free analysis); pH 7.0, 5.0, 4.5 and 4.0; 25 °C, 800 MHz; 50 mM sodium phosphate, 45 mM citric acid

B1: E. coli HdeB (natural protein, UniProt P0AET2 30-108, looked up)
chain: ANESAKDMTCQEFIDLNPKAMTPVAWWMLHEETVYKGGDTVTLNETDLTQIPKVIEYCKKNPQKNLYTFKNQASNDLPN
notes: HdeB, periplasmic acid-resistant chaperone of E. coli; 79 residues; numbers count on: the mature protein, with the signal peptide excluded; Expressed from pET-28a(+); It speaks of 79 residues and numbers them on the mature protein; Samples were 15N- or 13C/15N-labelled; Each monomer has a Cys10-Cys58 disulfide bridge; also called HdeB dimer; HdeB homo-dimer; source: E. coli BL21(DE3)-T1R, …
Question: Which “stoichiometry N” value does the source give for B1 here?
Answer: The value was 2.
